Self-aminoacylation data for 23 sequences are collected here from the supplement of paper PMC9233669.

Fewer inactive variants are shown than the library holds.

The test system of one series is biotinyl-Phe-oxazolone. The series can be described thus: self-aminoacylation, catalytic enhancement (BFO) (fold over background); higher = more active; k-Seq, kA / k0A0; sequences stand for … in GGGAAUGGAUCCACAUCUACGAAUUC…UUCACUGCAGACUUGACGAAGCUG
The method in brief:
(§1)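 Mutagenized RNA pools with a 21-nt variable region (0.43 μM) reacted with each biotinyl-aminoacyl-oxazolone at 2–1250 μM. Reactions ran in 50 μL HEPES/NaCl/KCl/MgCl2/CaCl2 buffer with 5% acetonitrile, pH 6.9–7.0, for 90 minutes at room temperature. Streptavidin-captured RNA was quantified by triplicate qPCR and Illumina sequencing, and per-sequence fraction reacted was fit to a pseudo-first-order model with 1000 bootstraps. Catalytic enhancement is median kA divided by the uncatalyzed rate, the low-activity peak of a bimodal Gaussian fit.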

For another series, the system named is biotinyl-Ile-oxazolone. In words: self-aminoacylation, catalytic enhancement (BIO) (fold over background); higher = more active; k-Seq, kA / k0A0; sequences stand for … in GGGAAUGGAUCCACAUCUACGAAUUC…UUCACUGCAGACUUGACGAAGCUG
An outline of the steps:
as §1

The test system of another series is biotinyl-Met-oxazolone. The series can be described thus: self-aminoacylation, catalytic enhancement (BMO) (fold over background); higher = more active; k-Seq, kA / k0A0; sequences stand for … in GGGAAUGGAUCCACAUCUACGAAUUC…UUCACUGCAGACUUGACGAAGCUG
An outline of the steps: as §1

The subject of a further series is biotinyl-Val-oxazolone. In words: self-aminoacylation, catalytic enhancement (BVO) (fold over background); higher = more active; k-Seq, kA / k0A0; sequences stand for … in GGGAAUGGAUCCACAUCUACGAAUUC…UUCACUGCAGACUUGACGAAGCUG
The method in brief: as §1

The subject of the next series is biotinyl-Leu-oxazolone. In words: self-aminoacylation, catalytic enhancement (BLO) (fold over background); higher = more active; k-Seq, kA / k0A0; sequences stand for … in GGGAAUGGAUCCACAUCUACGAAUUC…UUCACUGCAGACUUGACGAAGCUG
The method in brief: as §1

Another series deals with biotinyl-Trp-oxazolone. The series can be described thus: self-aminoacylation, catalytic enhancement (BWO) (fold over background); higher = more active; k-Seq, kA / k0A0; sequences stand for … in GGGAAUGGAUCCACAUCUACGAAUUC…UUCACUGCAGACUUGACGAAGCUG
An outline of the steps: as §1

On to “CUACUUCAAACACUCGGACUG [Fam1A.1 aminoacylation ribozyme variant]”, for which the self-aminoacylation in the series with biotinyl-Phe-oxazolone stood at 0.435; in the series on biotinyl-Ile-oxazolone it was 1.11; with biotinyl-Met-oxazolone, 1.01; with biotinyl-Val-oxazolone, 1.2; in the series on biotinyl-Leu-oxazolone it was 0.89; in the series with biotinyl-Trp-oxazolone, 1.32.
For “CUACUUCAAACACUCGGUCAG [Fam1A.1 aminoacylation ribozyme variant]”, the self-aminoacylation in the series with biotinyl-Phe-oxazolone came out at 0.496; in the series with biotinyl-Ile-oxazolone it was 0.907; in the series with biotinyl-Met-oxazolone, 0.878; in the series with biotinyl-Val-oxazolone, 0.958; with biotinyl-Leu-oxazolone it was 0.833; with biotinyl-Trp-oxazolone, 0.721.
Regarding “CUACUUCAAACACUCGGUGUG [Fam1A.1 aminoacylation ribozyme variant]”, the self-aminoacylation in the series on biotinyl-Phe-oxazolone stood at 4.18; in the series with biotinyl-Ile-oxazolone it was 1.81; in the series on biotinyl-Met-oxazolone, 1.72; in the series with biotinyl-Val-oxazolone, 1.59; with biotinyl-Leu-oxazolone, 1.5; with biotinyl-Trp-oxazolone, 1.63.
As to “CUACUUCAAACACUCGUUCUG [Fam1A.1 aminoacylation ribozyme variant]”, the self-aminoacylation in the series with biotinyl-Phe-oxazolone was 0.429; with biotinyl-Ile-oxazolone it was 0.595; in the series on biotinyl-Met-oxazolone it was 0.499; with biotinyl-Val-oxazolone, 0.635; with biotinyl-Leu-oxazolone, 0.492; with biotinyl-Trp-oxazolone, 0.444.
As for “CUACUUCAAACACUCUGUCUG [Fam1A.1 aminoacylation ribozyme variant]”, the self-aminoacylation in the series with biotinyl-Phe-oxazolone turned out to be 0.709; in the series with biotinyl-Ile-oxazolone, 0.797; in the series on biotinyl-Met-oxazolone, 0.608; in the series with biotinyl-Val-oxazolone it was 0.724; in the series with biotinyl-Leu-oxazolone, 0.547; in the series with biotinyl-Trp-oxazolone it was 0.678.
On to “CUACUUCAAACAGUCGGUCUU [Fam1A.1 aminoacylation ribozyme variant]”, for which the self-aminoacylation came out at 0.838 in the series with biotinyl-Phe-oxazolone; 1.1 in the series on biotinyl-Ile-oxazolone; 0.925 in the series on biotinyl-Met-oxazolone; 0.819 with biotinyl-Val-oxazolone; 1.13 in the series on biotinyl-Leu-oxazolone; 0.563 in the series on biotinyl-Trp-oxazolone.
On to “CUACUUCAAACAUUCCGUCUG [Fam1A.1 aminoacylation ribozyme variant]”, for which the self-aminoacylation in the series with biotinyl-Phe-oxazolone amounted to 0.631; in the series on biotinyl-Ile-oxazolone, 1.15; in the series on biotinyl-Met-oxazolone it was 0.79; in the series on biotinyl-Val-oxazolone it was 1.2; in the series on biotinyl-Leu-oxazolone, 1.19; with biotinyl-Trp-oxazolone, 1.22.
Consider “CUACUUCAAACAUUCGAUCUG [Fam1A.1 aminoacylation ribozyme variant]”, for which the self-aminoacylation stood at 0.62 with biotinyl-Phe-oxazolone; 0.645 with biotinyl-Ile-oxazolone; 0.593 in the series on biotinyl-Met-oxazolone; 0.731 with biotinyl-Val-oxazolone; 0.561 in the series with biotinyl-Leu-oxazolone; 0.44 with biotinyl-Trp-oxazolone.
In the case of “CUACUUCAAACAUUCGGUCUG [Fam1A.1 aminoacylation ribozyme variant]”, the self-aminoacylation is 0.828 in the series with biotinyl-Phe-oxazolone; 0.994 in the series on biotinyl-Ile-oxazolone; 0.904 with biotinyl-Met-oxazolone; 1.01 with biotinyl-Val-oxazolone; 0.892 in the series on biotinyl-Leu-oxazolone; 0.904 in the series with biotinyl-Trp-oxazolone.
As to “CUACUUCAAACAUUCGGUCUU [Fam1A.1 aminoacylation ribozyme variant]”, the self-aminoacylation in the series with biotinyl-Phe-oxazolone is 0.774; with biotinyl-Ile-oxazolone it was 1.15; with biotinyl-Met-oxazolone, 1.38; in the series with biotinyl-Val-oxazolone, 1.11; with biotinyl-Leu-oxazolone it was 1.03; in the series on biotinyl-Trp-oxazolone, 0.767.
For the sequence “CUACUUCAAACAUUCGUUCUG [Fam1A.1 aminoacylation ribozyme variant]”, the self-aminoacylation was 0.513 in the series on biotinyl-Phe-oxazolone; 0.713 with biotinyl-Ile-oxazolone; 0.669 in the series with biotinyl-Met-oxazolone; 0.706 in the series with biotinyl-Val-oxazolone; 0.659 with biotinyl-Leu-oxazolone; 0.504 with biotinyl-Trp-oxazolone.
In the case of “CUACUUCAAACCAUAGGUCUG [Fam1A.1 aminoacylation ribozyme variant]”, the self-aminoacylation with biotinyl-Phe-oxazolone was found to be 0.985; in the series on biotinyl-Ile-oxazolone it was 0.807; with biotinyl-Met-oxazolone, 0.47; with biotinyl-Val-oxazolone, 0.809; in the series on biotinyl-Leu-oxazolone, 0.615; in the series with biotinyl-Trp-oxazolone, 0.487.
As for “CUACUUCAAACCAUCGCUCUG [Fam1A.1 aminoacylation ribozyme variant]”, the self-aminoacylation with biotinyl-Phe-oxazolone was 0.394; with biotinyl-Ile-oxazolone, 0.878; in the series on biotinyl-Met-oxazolone, 0.762; with biotinyl-Val-oxazolone, 0.982; with biotinyl-Leu-oxazolone, 0.915; in the series with biotinyl-Trp-oxazolone, 0.532.
For the sequence “CUACUUCAAACCAUCGGGCUG [Fam1A.1 aminoacylation ribozyme variant]”, the self-aminoacylation in the series with biotinyl-Phe-oxazolone came to 0.939; with biotinyl-Ile-oxazolone, 1.97; with biotinyl-Met-oxazolone, 2.16; in the series with biotinyl-Val-oxazolone, 1.92; with biotinyl-Leu-oxazolone, 1.73; with biotinyl-Trp-oxazolone, 1.77.
As to “CUACUUCAAACCAUCGGUUUG [Fam1A.1 aminoacylation ribozyme variant]”, the self-aminoacylation with biotinyl-Phe-oxazolone turned out to be 0.597; in the series with biotinyl-Ile-oxazolone, 0.815; in the series on biotinyl-Met-oxazolone, 0.74; in the series on biotinyl-Val-oxazolone, 1.03; with biotinyl-Leu-oxazolone, 0.895; with biotinyl-Trp-oxazolone, 0.624.
On to “CUACUUCAAACGAUCGAUCUG [Fam1A.1 aminoacylation ribozyme variant]”, for which the self-aminoacylation with biotinyl-Phe-oxazolone was found to be 0.425; with biotinyl-Ile-oxazolone, 0.55; with biotinyl-Met-oxazolone, 0.47; in the series on biotinyl-Val-oxazolone, 0.584; with biotinyl-Leu-oxazolone, 0.485; in the series on biotinyl-Trp-oxazolone, 0.354.
For “CUACUUCAAACGAUCGGUCUG [Fam1A.1 aminoacylation ribozyme variant]”, the self-aminoacylation in the series on biotinyl-Phe-oxazolone is 1.42; with biotinyl-Ile-oxazolone, 0.65; in the series with biotinyl-Met-oxazolone, 0.677; in the series with biotinyl-Val-oxazolone it was 0.763; in the series on biotinyl-Leu-oxazolone, 0.68; with biotinyl-Trp-oxazolone, 1.31.
Take “CUACUUCAAACUAUCGGCCUG [Fam1A.1 aminoacylation ribozyme variant]”: the self-aminoacylation with biotinyl-Phe-oxazolone came out at 0.97; in the series on biotinyl-Ile-oxazolone, 1.2; with biotinyl-Met-oxazolone it was 1.13; in the series on biotinyl-Val-oxazolone, 1.06; in the series with biotinyl-Leu-oxazolone, 0.909; with biotinyl-Trp-oxazolone, 1.66.
“CUACUUCAAACUAUCGGUCUG [Fam1A.1 aminoacylation ribozyme variant]”: the self-aminoacylation in the series with biotinyl-Phe-oxazolone came out at 1.15; with biotinyl-Ile-oxazolone, 0.906; in the series on biotinyl-Met-oxazolone it was 0.818; in the series with biotinyl-Val-oxazolone it was 0.905; in the series with biotinyl-Leu-oxazolone, 0.779; with biotinyl-Trp-oxazolone, 0.905.
As for “CUACUUCAAAGAAUCAGUCUG [Fam1A.1 aminoacylation ribozyme variant]”, the self-aminoacylation with biotinyl-Phe-oxazolone was determined as 3.34; with biotinyl-Ile-oxazolone, 0.759; with biotinyl-Met-oxazolone it was 0.677; with biotinyl-Val-oxazolone, 0.803; in the series on biotinyl-Leu-oxazolone, 0.68; in the series on biotinyl-Trp-oxazolone it was 1.7.
On to “CUACUUCAAAGAAUCGGUCUA [Fam1A.1 aminoacylation ribozyme variant]”, for which the self-aminoacylation in the series with biotinyl-Phe-oxazolone stood at 1.2; with biotinyl-Ile-oxazolone, 0.748; in the series with biotinyl-Met-oxazolone, 0.608; in the series on biotinyl-Val-oxazolone it was 0.665; in the series on biotinyl-Leu-oxazolone it was 0.737; in the series on biotinyl-Trp-oxazolone it was 0.542.
Consider “CUACUUCAAAGAAUCGGUUUG [Fam1A.1 aminoacylation ribozyme variant]”, for which the self-aminoacylation in the series with biotinyl-Phe-oxazolone amounted to 5.29; with biotinyl-Ile-oxazolone, 0.892; in the series with biotinyl-Met-oxazolone it was 0.933; in the series with biotinyl-Val-oxazolone it was 0.785; in the series with biotinyl-Leu-oxazolone, 0.845; in the series with biotinyl-Trp-oxazolone, 4.68.
Turning to “CUACUUCAAAGAAUGGGUCUG [Fam1A.1 aminoacylation ribozyme variant]”, the self-aminoacylation was found to be 0.335 in the series on biotinyl-Phe-oxazolone; 0.79 in the series with biotinyl-Ile-oxazolone; 0.708 in the series on biotinyl-Met-oxazolone; 0.665 in the series on biotinyl-Val-oxazolone; 0.74 in the series with biotinyl-Leu-oxazolone; 0.459 with biotinyl-Trp-oxazolone.
